Assay results reported in US20220306759A1 (CYTOMX THERAPEUTICS, published 2022).
Like-named read-outs stand apart in the source and are kept apart here.

Tests used:
[1] = biological target: T1, human CD71 (transferrin receptor protein 1, TfR1) on human cell lines (human, UniProt P02786 1-760); test: FACS on MDA MB 231 cells; Kd against CD71-Ab
T1 construct: whole, on cells; also called huCD71
Procedure: (§1) In this study, the binding of the antibodies of the present disclosure to the indicated cell lines were performed using a standard FACS labelling method.

[2] = biological target: T1, human CD71 (transferrin receptor …); test: FACS on FaDu cells; Kd against CD71-Ab
Procedure: as §1

[3] = biological target: T1, human CD71 (transferrin receptor …); test: FACS on BxPC3 cells; Kd against CD71-Ab
Procedure: as §1

[4] = biological target: T1, human CD71 (transferrin receptor …); test: FACS on HT29 cells, uncleaved
Procedure: as §1

[5] = biological target: T1, human CD71 (transferrin receptor …); test: FACS on H292 cells, uncleaved
Procedure: (§2) In this study, the binding of the antibodies of the present disclosure to the indicated cell lines were performed using a standard FACS labelling method. […] These activatable antibodies include the light chain of the correspondingly named sequence listed above in Table C. The cells were labeled with the indicated test article at the indicated concentrations and subsequently detected with an Alexa Fluor 647 labeled goat anti-human IgG secondary antibody.

[6] = biological target: T1, human CD71 (transferrin receptor …); test: FACS on HCC1806 cells
Procedure: as §1

[7] = biological target: T2, recombinant human CD71 protein (human, UniProt P02786 89-760); test: ELISA, 1 µg/mL recombinant human CD71, uncleaved
T2 construct: also called recombinant CD71
T2 sequence (P02786 89-760 limits assumed): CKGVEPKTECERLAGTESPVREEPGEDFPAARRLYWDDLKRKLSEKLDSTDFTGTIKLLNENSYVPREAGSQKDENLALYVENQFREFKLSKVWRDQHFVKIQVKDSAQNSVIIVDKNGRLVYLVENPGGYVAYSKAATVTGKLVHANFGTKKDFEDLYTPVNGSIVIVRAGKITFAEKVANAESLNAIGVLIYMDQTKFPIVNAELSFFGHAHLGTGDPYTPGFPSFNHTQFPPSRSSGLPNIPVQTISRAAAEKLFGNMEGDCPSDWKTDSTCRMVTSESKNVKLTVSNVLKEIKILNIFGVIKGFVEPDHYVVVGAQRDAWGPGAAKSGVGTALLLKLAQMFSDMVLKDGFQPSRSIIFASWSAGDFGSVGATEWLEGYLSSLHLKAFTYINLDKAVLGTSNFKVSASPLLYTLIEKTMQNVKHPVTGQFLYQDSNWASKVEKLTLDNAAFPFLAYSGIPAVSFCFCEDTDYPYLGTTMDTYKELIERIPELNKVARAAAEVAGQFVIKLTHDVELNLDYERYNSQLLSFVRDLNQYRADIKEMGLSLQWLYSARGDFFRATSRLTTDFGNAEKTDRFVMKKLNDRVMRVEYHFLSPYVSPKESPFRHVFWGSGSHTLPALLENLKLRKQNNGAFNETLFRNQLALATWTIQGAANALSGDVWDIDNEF
Procedure: (§3) The amount of bound antibody was detected by incubation and detection by goat anti-human antibody conjugated to horseradish peroxidase and Ultra TMB (Thermo Fisher Scientific) detection.

[8] = biological target: T1, human CD71 (transferrin receptor …); test: FACS on FaDu cells, uncleaved
Procedure: as §1

[9] = biological target: T1, human CD71 (transferrin receptor …); test: FACS on H292 cells
Procedure: as §1

[10] = biological target: T1, human CD71 (transferrin receptor …); test: FACS on MDA MB 231 cells, uncleaved
Procedure: as §1

[11] = biological target: T1, human CD71 (transferrin receptor …); test: FACS on MDA MB 231 cells
Procedure: as §1

[12] = biological target: T1, human CD71 (transferrin receptor …); test: FACS on BxPC3 cells, uncleaved
Procedure: as §1

[13] = biological target: T1, human CD71 (transferrin receptor …); test: FACS on HT29 cells; Kd against CD71-Ab
Procedure: as §1

[14] = biological target: T2, recombinant human CD71 protein; test: ELISA; Kd against CD71 21.12
Procedure: as §3

[15] = biological target: T2, recombinant human CD71 protein; test: ELISA, 1 µg/mL CD71, uncleaved
Procedure: as §3

[16] = biological target: T2, recombinant human CD71 protein; test: ELISA; Kd against CD71 21.12; remark: listed apart in the source
Procedure: as §3

[17] = biological target: T2, recombinant human CD71 protein; test: ELISA, 1 µg/mL CD71 on nickel plates, not activated
Procedure: as §3

[18] = biological target: T2, recombinant human CD71 protein; test: ELISA, 1 µg/mL recombinant human CD71
Procedure: as §3

[19] = biological target: T3, cynomolgus monkey CD71 on primary kidney epithelial cells (cynomolgus monkey, UniProt H9EXL1 1-760 (rhesus entry)); test: FACS on cynomolgus monkey primary kidney epithelial cells
T3 construct: whole, on cells; also called cyno CD71
T3 sequence (chain, as listed by the source): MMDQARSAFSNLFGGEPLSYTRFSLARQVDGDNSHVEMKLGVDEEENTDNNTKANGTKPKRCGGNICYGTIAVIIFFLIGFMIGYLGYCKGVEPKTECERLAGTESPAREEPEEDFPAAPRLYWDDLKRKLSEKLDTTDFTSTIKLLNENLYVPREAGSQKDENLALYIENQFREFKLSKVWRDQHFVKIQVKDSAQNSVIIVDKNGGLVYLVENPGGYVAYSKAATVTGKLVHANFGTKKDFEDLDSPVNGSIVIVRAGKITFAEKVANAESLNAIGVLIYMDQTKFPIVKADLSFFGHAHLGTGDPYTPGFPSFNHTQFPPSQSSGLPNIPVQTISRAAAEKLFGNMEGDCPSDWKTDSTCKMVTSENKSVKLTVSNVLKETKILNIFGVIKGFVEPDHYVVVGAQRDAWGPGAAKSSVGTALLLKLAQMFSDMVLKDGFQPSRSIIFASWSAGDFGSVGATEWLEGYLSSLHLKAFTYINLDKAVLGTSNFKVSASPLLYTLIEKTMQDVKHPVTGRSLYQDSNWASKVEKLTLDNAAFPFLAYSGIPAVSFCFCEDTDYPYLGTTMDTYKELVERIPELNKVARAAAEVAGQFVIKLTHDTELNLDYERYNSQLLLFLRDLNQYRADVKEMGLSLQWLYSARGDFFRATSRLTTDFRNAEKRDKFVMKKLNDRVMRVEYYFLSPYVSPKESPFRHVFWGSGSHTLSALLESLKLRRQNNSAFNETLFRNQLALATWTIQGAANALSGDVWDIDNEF
Procedure: In this study, the binding of the antibody of the present disclosure to the cells were performed using a standard FACS labelling method.

[20] = biological target: T1, human CD71 (transferrin receptor …); test: FACS on BxPC3 cells
recombinant mouse CD71 = recombinant mouse CD71 (mouse, UniProt Q62351 89-763, limits assumed); test: ELISA, recombinant CD71 (1 µg/mL) on plates, anti-human IgG-HRP
Chain of recombinant mouse CD71 (Q62351 89-763 limits assumed): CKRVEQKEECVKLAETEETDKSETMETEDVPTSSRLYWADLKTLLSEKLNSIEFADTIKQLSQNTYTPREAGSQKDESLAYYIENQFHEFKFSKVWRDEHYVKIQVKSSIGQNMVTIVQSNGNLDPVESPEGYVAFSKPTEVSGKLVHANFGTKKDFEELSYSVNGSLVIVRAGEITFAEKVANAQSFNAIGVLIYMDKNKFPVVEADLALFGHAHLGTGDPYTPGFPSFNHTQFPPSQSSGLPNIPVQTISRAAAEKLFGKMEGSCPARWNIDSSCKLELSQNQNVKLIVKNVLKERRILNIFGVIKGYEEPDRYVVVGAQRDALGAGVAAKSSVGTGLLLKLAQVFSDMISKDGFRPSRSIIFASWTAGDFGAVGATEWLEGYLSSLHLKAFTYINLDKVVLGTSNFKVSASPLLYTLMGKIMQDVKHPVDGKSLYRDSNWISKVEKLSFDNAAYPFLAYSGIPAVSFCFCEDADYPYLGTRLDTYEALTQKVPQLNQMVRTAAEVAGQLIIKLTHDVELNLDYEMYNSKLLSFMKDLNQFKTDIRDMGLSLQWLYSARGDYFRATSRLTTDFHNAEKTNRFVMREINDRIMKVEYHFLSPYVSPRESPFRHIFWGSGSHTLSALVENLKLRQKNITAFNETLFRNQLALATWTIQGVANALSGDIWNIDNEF

[21] = biological target: T1, human CD71 (transferrin receptor …); test: FACS on H292 cells; remark: listed apart in the source
Procedure: as §2

[22] = biological target: T1, human CD71 (transferrin receptor …); test: FACS on DMS 153 cells
Procedure: (§4) In this study, the binding of the antibodies and ADCs of the present disclosure to the indicated cell lines were performed using a standard FACS labelling method.

[23] = biological target: T2, recombinant human CD71 protein; test: ELISA, 1 µg/mL CD71 on copper or nickel plates
Procedure: as §3

[24] = biological target: T1, human CD71 (transferrin receptor …); test: FACS on DMS 79 cells
Procedure: as §4

[25] = biological target: T1, human CD71 (transferrin receptor …); test: FACS on MDA MB 231 cells; remark: listed apart in the source
Procedure: as §1

[26] = biological target: T1, human CD71 (transferrin receptor …); test: FACS on HT29 cells
Procedure: as §1

[27] = biological target: T2, recombinant human CD71 protein; test: ELISA, 1 µg/mL recombinant human CD71 (second value)
Procedure: as §3

[28] = biological target: T1, human CD71 (transferrin receptor …); test: FACS on BxPC3 cells; remark: listed apart in the source
Procedure: as §1

[29] = biological target: T2, recombinant human CD71 protein; test: ELISA, 1 µg/mL CD71 on nickel plates
[30] = biological target: T1, human CD71 (transferrin receptor …); test: FACS on FaDu cells
Procedure: as §1

Cyno CD71-His6 = biological target: T4, Cyno CD71-His6 (cynomolgus monkey, UniProt H9EXL1 89-760 (rhesus entry)); test: BLI (Octet), CD71-His6 on Ni-NTA, Fab in solution
T4 construct: immobilized on Ni-NTA substrate (Octet); also called recombinant cynomolgus CD71 protein with hexa-histidine tag
T4 sequence (chain, as listed by the source): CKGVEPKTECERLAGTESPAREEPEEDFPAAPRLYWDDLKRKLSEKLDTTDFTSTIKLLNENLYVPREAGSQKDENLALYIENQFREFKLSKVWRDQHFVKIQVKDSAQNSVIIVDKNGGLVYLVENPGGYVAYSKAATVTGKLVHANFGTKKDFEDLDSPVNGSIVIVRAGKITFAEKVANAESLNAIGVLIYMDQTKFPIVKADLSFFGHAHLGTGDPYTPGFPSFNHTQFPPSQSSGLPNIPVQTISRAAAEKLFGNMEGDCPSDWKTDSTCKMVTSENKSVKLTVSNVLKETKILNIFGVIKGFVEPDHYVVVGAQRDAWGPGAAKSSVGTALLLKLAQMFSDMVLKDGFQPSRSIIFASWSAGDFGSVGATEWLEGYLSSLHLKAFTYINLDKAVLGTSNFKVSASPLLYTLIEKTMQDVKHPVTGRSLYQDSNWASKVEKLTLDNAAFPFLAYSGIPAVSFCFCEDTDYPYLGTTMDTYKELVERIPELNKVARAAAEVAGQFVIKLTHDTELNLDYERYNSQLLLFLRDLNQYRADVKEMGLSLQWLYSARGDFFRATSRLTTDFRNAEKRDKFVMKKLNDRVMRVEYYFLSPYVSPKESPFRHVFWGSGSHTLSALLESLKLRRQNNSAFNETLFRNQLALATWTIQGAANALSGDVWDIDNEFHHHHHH
From the text: (§5) The recombinant CD71 proteins included a hexa-histidine (His6) peptide tag, by which the protein was immobilized to a Ni-NTA (nitrilotriacetic acid)-containing substrate.

Human CD71-His6 = biological target: T5, Human CD71-His6 (human, UniProt P02786 89-760, limits assumed); test: BLI (Octet), CD71-His6 on Ni-NTA, Fab in solution
T5 construct: immobilized on Ni-NTA substrate (Octet); also called recombinant human CD71 protein with hexa-histidine tag
T5 sequence (P02786 other isoform, or with tags, fused parts or gaps limits assumed): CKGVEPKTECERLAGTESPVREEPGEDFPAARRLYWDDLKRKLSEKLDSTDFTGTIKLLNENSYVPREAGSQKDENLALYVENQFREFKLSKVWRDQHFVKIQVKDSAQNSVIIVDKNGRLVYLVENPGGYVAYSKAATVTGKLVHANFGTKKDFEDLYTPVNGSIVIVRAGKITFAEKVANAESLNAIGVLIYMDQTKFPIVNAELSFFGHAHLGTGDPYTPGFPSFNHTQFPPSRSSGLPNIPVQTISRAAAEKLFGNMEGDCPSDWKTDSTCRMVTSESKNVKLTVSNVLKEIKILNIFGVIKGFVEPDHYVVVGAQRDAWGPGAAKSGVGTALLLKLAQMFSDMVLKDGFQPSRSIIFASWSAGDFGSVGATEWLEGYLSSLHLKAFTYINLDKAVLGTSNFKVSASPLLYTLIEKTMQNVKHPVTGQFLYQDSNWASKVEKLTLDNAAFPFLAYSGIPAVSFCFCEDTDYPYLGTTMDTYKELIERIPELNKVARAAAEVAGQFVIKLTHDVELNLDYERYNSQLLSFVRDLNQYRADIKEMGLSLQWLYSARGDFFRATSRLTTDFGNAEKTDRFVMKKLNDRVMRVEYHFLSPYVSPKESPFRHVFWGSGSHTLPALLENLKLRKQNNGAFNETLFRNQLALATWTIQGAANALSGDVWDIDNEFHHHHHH
From the text: as §5

T1 sequence (P02786 whole entry): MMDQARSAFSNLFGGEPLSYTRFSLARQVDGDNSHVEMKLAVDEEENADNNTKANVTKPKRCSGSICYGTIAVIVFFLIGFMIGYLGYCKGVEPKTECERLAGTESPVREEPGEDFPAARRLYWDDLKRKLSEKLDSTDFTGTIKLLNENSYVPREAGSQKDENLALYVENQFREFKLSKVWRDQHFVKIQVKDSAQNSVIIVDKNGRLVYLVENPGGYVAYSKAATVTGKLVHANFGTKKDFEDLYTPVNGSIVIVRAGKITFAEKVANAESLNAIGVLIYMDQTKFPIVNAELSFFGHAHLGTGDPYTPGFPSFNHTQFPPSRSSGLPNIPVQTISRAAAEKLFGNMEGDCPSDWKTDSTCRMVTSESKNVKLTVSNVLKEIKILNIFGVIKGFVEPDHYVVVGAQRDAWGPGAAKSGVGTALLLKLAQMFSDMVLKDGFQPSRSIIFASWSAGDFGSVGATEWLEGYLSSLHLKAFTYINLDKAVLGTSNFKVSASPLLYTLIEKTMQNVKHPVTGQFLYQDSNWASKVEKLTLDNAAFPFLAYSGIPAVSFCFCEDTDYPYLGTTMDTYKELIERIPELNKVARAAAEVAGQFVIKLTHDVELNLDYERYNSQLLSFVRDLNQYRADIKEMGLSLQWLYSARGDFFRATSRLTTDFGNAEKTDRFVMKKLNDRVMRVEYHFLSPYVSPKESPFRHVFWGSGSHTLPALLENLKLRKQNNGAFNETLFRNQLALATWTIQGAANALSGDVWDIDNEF

B1: anti-human CD71 TF02.13-3001 activatable antibody (antibody, human IgG1, kappa)
heavy: not shown
light: QGQSGQGNLCTEHSAALDCRSYGGGSSGGSAVGLLAPPGGLSGRSDNHGGSDIQMTQSPSSLSASVGDRVTITCSASSSVYYMYWFQQKPGKAPKLWIYSTSNLASGVPSRFSGSGSGTDYTLTISSMQPEDFATYYCQQRRNYPYTFGQGTKLEIKRTVAAPSVFIFPPSDEQLKSGTASVVCLLNNFYPREAKVQWKVDNALQSGNSQESVTEQDSKDSTYSLSSTLTLSKADYEKHKVYACEVTHQGLSSPVTKSFNRGEC
notes: also called CD71-ActAb 1
- ME (masking efficiency) [1]: 46 fold
- ME (masking efficiency) [2]: 38 fold
- ME (masking efficiency) [3]: 43 fold
- Kd [4]: 23 nM
- Kd [5]: 10.2 nM
- Kd [6]: ~200 nM
- Kd [7]: 0.813 nM
- Kd [8]: 14.7 nM
- Bmax (MFI) [9]: 1820 MFI
- Kd [9]: 52.1 nM
- Kd [10]: 38.8 nM
- Kd [11]: 30.6 nM
- Kd [12]: 35.2 nM
- ME (masking efficiency) [13]: 45 fold

B2: anti-human CD71 TF02.13-2001 activatable antibody (antibody, human IgG1, kappa)
heavy: not shown
light: QGQSGQGNLCTEHSAALDCRSYGGGSSGGSISSGLLSGRSDNHGGGSDIQMTQSPSSLSASVGDRVTITCSASSSVYYMYWFQQKPGKAPKLWIYSTSNLASGVPSRFSGSGSGTDYTLTISSMQPEDFATYYCQQRRNYPYTFGQGTKLEIKRTVAAPSVFIFPPSDEQLKSGTASVVCLLNNFYPREAKVQWKVDNALQSGNSQESVTEQDSKDSTYSLSSTLTLSKADYEKHKVYACEVTHQGLSSPVTKSFNRGEC
- ME (masking efficiency) [14]: 65 fold
- Kd [5]: 27.5 nM
- Kd [6]: ~200 nM
- Kd [7]: 2.53 nM
- Kd [15]: 9.14 nM
- ME (masking efficiency) [16]: 42 fold
- Bmax (MFI) [9]: 2210 MFI
- Kd [9]: 92.3 nM
- Kd [17]: 13 nM

B3: anti-human CD71 TF02.18-2001 activatable antibody (antibody, human IgG1, kappa)
heavy: not shown
light: QGQSGQGCTEHSFALDCGGGSSGGSISSGLLSGRSDNHGGGSDIQMTQSPSSLSASVGDRVTITCSASSSVYYMYWFQQKPGKAPKLWIYSTSNLASGVPSRFSGSGSGTDYTLTISSMQPEDFATYYCQQRRNYPYTFGQGTKLEIKRTVAAPSVFIFPPSDEQLKSGTASVVCLLNNFYPREAKVQWKVDNALQSGNSQESVTEQDSKDSTYSLSSTLTLSKADYEKHKVYACEVTHQGLSSPVTKSFNRGEC
notes: also called CD71-ActAb 2
- ME (masking efficiency) [1]: 38 fold
- ME (masking efficiency) [14]: 11 fold
- ME (masking efficiency) [2]: 39 fold
- ME (masking efficiency) [3]: 43 fold
- Kd [4]: 19.7 nM
- Kd [8]: 15.4 nM
- Kd [15]: 1.59 nM
- ME (masking efficiency) [16]: 9 fold
- Kd [10]: 32 nM
- Kd [17]: 3 nM
- Kd [12]: 36.4 nM
- ME (masking efficiency) [13]: 39 fold

B4: Ab21.12 LcB:HcC (antibody, human IgG1, kappa)
heavy: not shown
light: DIQMTQSPSSLSASVGDRVTITCSASSSVYYMYWFQQKPGKAPKLWIYSTSNLASGVPSRFSGSGSGTDYTLTISSMQPEDFATYYCQQRRNYPYTFGQGTKLEIKRTVAAPSVFIFPPSDEQLKSGTASVVCLLNNFYPREAKVQWKVDNALQSGNSQESVTEQDSKDSTYSLSSTLTLSKADYEKHKVYACEVTHQGLSSPVTKSFNRGEC
- Kd [18]: 0.255 nM
- Kd [19]: ~3 nM
- Kd [20]: ~3 nM
- binding result (recombinant mouse CD71): no binding
- Kd [21]: 0.441 nM
- Kd [22]: 4.47 nM
- Kd [23]: 0.14 nM
- Kd [6]: 5 nM
- Kd [24]: 0.898 nM
- Kd [25]: 0.84 nM
- Kd [26]: 0.51 nM
- Kd [27]: 0.162 nM
- Kd [28]: 0.81 nM
- Kd [29]: 0.3 nM
- Bmax (MFI) [9]: 1820 MFI
- Kd [9]: 1.53 nM
- Kd [11]: 1.03 nM
- Kd [30]: 0.39 nM

B5: anti-human CD71 Ab21.12-Duoc (antibody, human IgG1, kappa)
heavy: not shown
light: DIQMTQSPSSLSASVGDRVTITCSASSSVYYMYWFQQKPGKAPKLWIYSTSNLASGVPSRFSGSGSGTDYTLTISSMQPEDFATYYCQQRRNYPYTFGQGTKLEIKRTVAAPSVFIFPPSDEQLKSGTASVVCLLNNFYPREAKVQWKVDNALQSGNSQESVTEQDSKDSTYSLSSTLTLSKADYEKHKVYACEVTHQGLSSPVTKSFNRGEC
modifications: duocarmycin conjugated to the antibody; chain and residues not stated
notes: antibody drug conjugate of Ab21.12; also called anti-human CD71 antibody conjugated to duocarmycin
- Kd [22]: 2.3 nM
- Kd [24]: 1.09 nM

B6: Ab21.10 LcB:HcA (antibody, V domains shown)
VH: QVQLVQSGAEVKKPGASVKVSCKASGYTFTSYWMHWVRQAPGQGLEWMGAIYPGNSETGYAQKFQGRVTMTRDTSTSTVYMELSSLRSEDTAVYYCARENWDPGFAFWGQGTLVTVSS
VL: DIQMTQSPSSLSASVGDRVTITCSASSSVYYMYWFQQKPGKAPKLWIYSTSNLASGVPSRFSGSGSGTDYTLTISSMQPEDFATYYCQQRRNYPYTFGQGTKLEIK
notes: humanized; detected with anti-human IgG; also called huCD71 Ab21.10
- binding result [20]: binds

B7: anti-CD71 Fab fragment (papain digest of anti-CD71 21.12) (Fab, V domains shown)
VH: QVQLVQSGAEVKKPGASVKMSCKASGYTFTSYWMHWVRQAPGQGLEWIGAIYPGNSETGYAQKFQGRATLTADTSTSTAYMELSSLRSEDTAVYYCTRENWDPGFAFWGQGTLITVSS
VL: DIQMTQSPSSLSASVGDRVTITCSASSSVYYMYWFQQKPGKAPKLWIYSTSNLASGVPSRFSGSGSGTDYTLTISSMQPEDFATYYCQQRRNYPYTFGQGTKLEIKR
- Kd (Cyno CD71-His6): 6 nM
- koff (Cyno CD71-His6): 0.00559 s⁻¹
- kon (Cyno CD71-His6): 390000 M⁻¹ s⁻¹
- Kd (Human CD71-His6): 14 nM
- koff (Human CD71-His6): 0.00398 s⁻¹
- kon (Human CD71-His6): 664000 M⁻¹ s⁻¹
